Results on 36 variants are retold here after the Human Domainome abundance scans (Beltran et al. 2025).

The chains are these.
B1: Steroid hormone receptor ERR2, residues 100 to 176; numbered along this chain, O95718 (parent)
chain: KRLCLVCGDIASGYHYGVASCEACKAFFKRTIQGNIEYSCPATNECEITKRRRKSCQACRFMKCLKVGMLKEGVRLD

± gives the uncertainty stated by the source.

The variants in this data set derive from B1. The data set is described as follows: abundance fitness (aPCA) (normalised: wild type 0, dead -1); higher = more abundant; growth selection in yeast, the domain comes from the species named. The conditions noted are these: Homo sapiens.
Regarding KRLCLVCGDIASGYHYGVASCEACKAFFKRTIQGNIEYSCPATNECEITKRRRKSCQACRFMKRLKVGMLKEGVRLD, the abundance fitness was -0.751 ± 0.073.
KRLCLVCGDIASGYHYGVASCEACKAFFKRTIQGNIEYSCPATNECEITKRRRKSCQACRFMKKLKVGMLKEGVRLD: the abundance fitness was -0.767 ± 0.2.
KRLCLVCGDIASGYHYGVASCEACKAFFKRTIQGNIEYSCPATNECEITKRRRKSCQACRFMKTLKVGMLKEGVRLD: the abundance fitness is -0.658 ± 0.15.
On to KRLCLVCGDIASGYHYGVASCEACKAFFKRTIQGNIEYSCPATNECEITKRRRKSCQACRFMKSLKVGMLKEGVRLD, for which the abundance fitness is -0.396 ± 0.065.
Under KRLCLVCGDIASGYHYGVASCEACKAFFKRTIQGNIEYSCPATNECEITKRRRKSCQACRFMKNLKVGMLKEGVRLD stands -0.483 ± 0.21.
Under KRLCLVCGDIASGYHYGVASCEACKAFFKRTIQGNIEYSCPATNECEITKRRRKSCQACRFMKWLKVGMLKEGVRLD stands -0.531 ± 0.083.
Consider KRLCLVCGDIASGYHYGVASCEACKAFFKRTIQGNIEYSCPATNECEITKRRRKSCQACRFMKDLKVGMLKEGVRLD, for which the abundance fitness is -1.05 ± 0.26.
Under KRLCLVCGDIASGYHYGVASCEACKAFFKRTIQGNIEYSCPATNECEITKRRRKSCQACRFMKVLKVGMLKEGVRLD stands -0.836 ± 0.094; under KRLCLVCGDIASGYHYGVASCEACKAFFKRTIQGNIEYSCPATNECEITKRRRKSCQACRFMKELKVGMLKEGVRLD, -0.561 ± 0.092.
As for KRLCLVCGDIASGYHYGVASCEACKAFFKRTIQGNIEYSCPATNECEITKRRRKSCQACRFMKILKVGMLKEGVRLD, the abundance fitness was -0.478 ± 0.2.
Take KRLCLVCGDIASGYHYGVASCEACKAFFKRTIQGNIEYSCPATNECEITKRRRKSCQACRFMKPLKVGMLKEGVRLD: the abundance fitness was -0.747 ± 0.16.
Turning to KRLCLVCGDIASGYHYGVASCEACKAFFKRTIQGNIEYSCPATNECEITKRRRKSCQACRFMKGLKVGMLKEGVRLD, the abundance fitness is -0.582 ± 0.059.
Under KRLCLVCGDIASGYHYGVASCEACKAFFKRTIQGNIEYSCPATNECEITKRRRKSCQACRFMKALKVGMLKEGVRLD stands -0.301 ± 0.056.
Under KRLCLVCGDIASGYHYGVASCEACKAFFKRTIQGNIEYSCPATNECEITKRRRKSCQACRFMKLLKVGMLKEGVRLD stands -0.826 ± 0.1; under KRLCLVCGDIASGYHYGVASCEACKAFFKRTIQGNIEYSCPATNECEITKRRRKSCQACRFMKMLKVGMLKEGVRLD, -0.273 ± 0.081; under KRLCLVCGDIASGYHYGVASCEACKAFFKRTIQGNIEYSCPATNECEITKRRRKSCQACRFMKFLKVGMLKEGVRLD, -0.686 ± 0.21.
For the variant KRLCLVCGDIASGYHYGVASCEACKAFFKRTIQGNIEYSCPATNECEITKRRRKSCQACRFMKHLKVGMLKEGVRLD, the abundance fitness was -1.04 ± 0.4.
With KRLCLVCGDIASGYHYGVASCEACKAFFKRTIQGNIEYSCPATNECEITKRRRKSCQACRFMKYLKVGMLKEGVRLD, the abundance fitness was -0.95 ± 0.26.
In the case of KRLCLVCGDIASGYHYGVASCEACKAFFKRTIQGNIEYSCPATNECEITKRRRKSCQACRFMKCEKVGMLKEGVRLD, the abundance fitness was -0.132 ± 0.054.
Consider KRLCLVCGDIASGYHYGVASCEACKAFFKRTIQGNIEYSCPATNECEITKRRRKSCQACRFMKCQKVGMLKEGVRLD, for which the abundance fitness is -0.102 ± 0.062.
Take KRLCLVCGDIASGYHYGVASCEACKAFFKRTIQGNIEYSCPATNECEITKRRRKSCQACRFMKCKKVGMLKEGVRLD: the abundance fitness is -0.466 ± 0.085.
As for KRLCLVCGDIASGYHYGVASCEACKAFFKRTIQGNIEYSCPATNECEITKRRRKSCQACRFMKCSKVGMLKEGVRLD, the abundance fitness was -0.442 ± 0.071.
As to KRLCLVCGDIASGYHYGVASCEACKAFFKRTIQGNIEYSCPATNECEITKRRRKSCQACRFMKCPKVGMLKEGVRLD, the abundance fitness is -0.753 ± 0.17.
As for KRLCLVCGDIASGYHYGVASCEACKAFFKRTIQGNIEYSCPATNECEITKRRRKSCQACRFMKCVKVGMLKEGVRLD, the abundance fitness was -0.082 ± 0.044.
With KRLCLVCGDIASGYHYGVASCEACKAFFKRTIQGNIEYSCPATNECEITKRRRKSCQACRFMKCTKVGMLKEGVRLD, the abundance fitness was -0.516 ± 0.093.
As to KRLCLVCGDIASGYHYGVASCEACKAFFKRTIQGNIEYSCPATNECEITKRRRKSCQACRFMKCYKVGMLKEGVRLD, the abundance fitness was -0.456 ± 0.17.
Consider KRLCLVCGDIASGYHYGVASCEACKAFFKRTIQGNIEYSCPATNECEITKRRRKSCQACRFMKCAKVGMLKEGVRLD, for which the abundance fitness was -0.256 ± 0.064.
Take KRLCLVCGDIASGYHYGVASCEACKAFFKRTIQGNIEYSCPATNECEITKRRRKSCQACRFMKCHKVGMLKEGVRLD: the abundance fitness is -0.797 ± 0.35.
In the case of KRLCLVCGDIASGYHYGVASCEACKAFFKRTIQGNIEYSCPATNECEITKRRRKSCQACRFMKCFKVGMLKEGVRLD, the abundance fitness was -0.433 ± 0.12.
As to KRLCLVCGDIASGYHYGVASCEACKAFFKRTIQGNIEYSCPATNECEITKRRRKSCQACRFMKCIKVGMLKEGVRLD, the abundance fitness is -0.289 ± 0.11.
Under KRLCLVCGDIASGYHYGVASCEACKAFFKRTIQGNIEYSCPATNECEITKRRRKSCQACRFMKCMKVGMLKEGVRLD stands -0.175 ± 0.071.
Under KRLCLVCGDIASGYHYGVASCEACKAFFKRTIQGNIEYSCPATNECEITKRRRKSCQACRFMKCNKVGMLKEGVRLD stands -0.813 ± 0.31; under KRLCLVCGDIASGYHYGVASCEACKAFFKRTIQGNIEYSCPATNECEITKRRRKSCQACRFMKCWKVGMLKEGVRLD, -0.697 ± 0.095.
In the case of KRLCLVCGDIASGYHYGVASCEACKAFFKRTIQGNIEYSCPATNECEITKRRRKSCQACRFMKCGKVGMLKEGVRLD, the abundance fitness is -0.534 ± 0.055.
In the case of KRLCLVCGDIASGYHYGVASCEACKAFFKRTIQGNIEYSCPATNECEITKRRRKSCQACRFMKCRKVGMLKEGVRLD, the abundance fitness was -0.459 ± 0.052.
As to KRLCLVCGDIASGYHYGVASCEACKAFFKRTIQGNIEYSCPATNECEITKRRRKSCQACRFMKCDKVGMLKEGVRLD, the abundance fitness is -0.548 ± 0.15.
